Results from US20250282879A1 (CILAG GMBH INTERNATIONAL, published 2025).
Like-named read-outs stand apart in the source and are kept apart here.

Key:
[1] = target: T1, human IL-4R on cells (HEK-Blue IL-4/IL-13 cells, human PBMC, human whole blood) (human, UniProt P24394 26-825); experiment: cell-based or functional assay
[2] = target: T2, recombinant human IL-31 protein (Peprotech) (human, UniProt Q6EBC2 24-164); experiment: cell-based or functional assay
T2 sequence (looked up): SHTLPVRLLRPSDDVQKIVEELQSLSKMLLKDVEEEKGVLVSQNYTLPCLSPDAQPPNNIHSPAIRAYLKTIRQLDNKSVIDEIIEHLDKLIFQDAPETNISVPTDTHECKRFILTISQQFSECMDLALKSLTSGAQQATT

[3] = target: T3, recombinant cynomolgus monkey IL-4R (ECD with His-tag, Acro Biosystems) (cynomolgus monkey, UniProt A0A2K5V556 26-232); experiment: SPR, Morrison captured via anti-human IgG-Fc, IL-4R ECD-His analyte
T3 construct: bought; also called cynomolgus IL-4R
T3 sequence (A0A2K5V556 entry or part of it limits assumed): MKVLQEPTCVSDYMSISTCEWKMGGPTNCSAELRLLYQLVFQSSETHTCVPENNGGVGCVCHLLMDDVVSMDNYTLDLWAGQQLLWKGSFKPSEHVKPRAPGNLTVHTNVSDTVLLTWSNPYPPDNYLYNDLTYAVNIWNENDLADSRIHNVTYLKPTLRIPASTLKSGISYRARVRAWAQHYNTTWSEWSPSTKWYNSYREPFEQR
Description: (§1) Binding kinetics (including affinity) of the bispecific Morrison-H (PRO2198, PRO2199) and Morrison-L (PRO2206, PRO2207) molecules to recombinant human IL-4R protein (ECD with His Tag, Sino Biological) were determined by SPR analysis on a T200 device (Biacore, Cytiva). In this SPR experiment, Morrison molecules were captured via an anti-human IgG-Fc antibody (Human Antibody Capture Kit; Biacore, Cytiva) covalently immobilized to a carboxylmethylated dextran surface (CM5 sensorchip; Biacore, Cytiva) and a titration series of human IL-4R ECD was injected as analyte. After each analyte injection cycle, the sensor chip was regenerated (MgCl₂), and new Morrison antibody was subsequently re-captured. […] The apparent dissociation (kd) and association (kₐ) rate constants and the apparent dissociation equilibrium constant (KD) were calculated with the Biacore analysis software (Biacore Evaluation software Version 3.2, Cytiva) using one-to-one Langmuir binding model and quality of the fits was monitored based on Chi2 and U-value, which are measures for the quality of the curve fitting. The binding level was calculated as the maximum stability binding achieved normalized to the theoretical Rmax. Cross-reactivity to cynomolgus monkey IL-4R was measured using the same setup as for the analysis of human IL-4R kinetics, with the difference that recombinant cynomolgus monkey IL-4R (ECD with His-tag, Acro Biosystems) protein was used as analyte instead of human IL-4R.

[4] = target: T4, recombinant human IL-4R protein (ECD with His Tag, Sino Biological) (human, UniProt P24394 26-232); experiment: as above
T4 construct: extracellular domain; bought; also called human IL-4R ECD; not shown: His Tag
Description: as §1

[5] = target: T1, human IL-4R on cells (HEK-Blue …); experiment: cell-based or functional assay; remark: listed apart in the source
[6] = target: T1, human IL-4R on cells (HEK-Blue …); experiment: cell-based or functional assay; remark: listed apart in the source
[7] = target: T2, recombinant human IL-31 protein …; experiment: cell-based or functional assay; remark: listed apart in the source
[8] = target: T1, human IL-4R on cells (HEK-Blue …); experiment: cell-based or functional assay; remark: listed apart in the source
[9] = target: T5, human IL-4R on transfected HEK293T cells (human, UniProt P24394 26-825); experiment: flow cytometry, transfected HEK293T cells
T5 construct: whole, on cells; also called human IL-4R-expressing HEK293T cells; not shown: V5 Tag fused to the N-terminus of the expression construct
From the text: (§2) To test binding of the Morrison-H and Morrison-L antibodies PRO2198, PRO2199, PRO2206 and PRO2207 to human or cynomolgus IL-4R-expressing HEK293T cells, HEK293T cells were transfected with human and cynomolgus IL-4R plasmids and mock plasmid using Lipofectamine3000. Binding of an antibody targeting V5 Tag, which is fused to the N-terminus of human and cynomolgus IL-4R expression constructs, would confirm successful expression of both targets and was thus used as a positive control for plasma membranous binding. The Morrison-H molecule PRO2077 was used as negative control for cynomolgus IL-4R binding since this molecule had not shown any cross-reactivity to cynomolgus IL-4R (see section 5.3.).
(§3) 50,000 transfected HEK293T cells per well were seeded in a 96-well plate. 5-fold serial dilutions of the Morrison-H and Morrison-L antibodies PRO2198, PRO2199, PRO2206 and PRO2207 and of the control molecule PRO2077, which is not cross-reactive to cynomolgus IL-4R, were added at concentrations ranging from 5,000 to 0.32 ng/ml to the plates and incubated for 60 min at 4° C. on a shaker. Supernatants were removed and detection reagent was added for flow cytometry analysis. The geometric mean of the APC fluorescence intensity of single cells was calculated.

[10] = target: T6, cynomolgus IL-4R on transfected HEK293T cells (cynomolgus monkey, UniProt A0A2K5V580 33-832); experiment: flow cytometry, transfected HEK293T cells
T6 construct: whole, on cells; also called cynomolgus IL-4R-expressing HEK293T cells; not shown: V5 Tag fused to the N-terminus of the expression construct
T6 sequence (A0A2K5V580 entry or part of it): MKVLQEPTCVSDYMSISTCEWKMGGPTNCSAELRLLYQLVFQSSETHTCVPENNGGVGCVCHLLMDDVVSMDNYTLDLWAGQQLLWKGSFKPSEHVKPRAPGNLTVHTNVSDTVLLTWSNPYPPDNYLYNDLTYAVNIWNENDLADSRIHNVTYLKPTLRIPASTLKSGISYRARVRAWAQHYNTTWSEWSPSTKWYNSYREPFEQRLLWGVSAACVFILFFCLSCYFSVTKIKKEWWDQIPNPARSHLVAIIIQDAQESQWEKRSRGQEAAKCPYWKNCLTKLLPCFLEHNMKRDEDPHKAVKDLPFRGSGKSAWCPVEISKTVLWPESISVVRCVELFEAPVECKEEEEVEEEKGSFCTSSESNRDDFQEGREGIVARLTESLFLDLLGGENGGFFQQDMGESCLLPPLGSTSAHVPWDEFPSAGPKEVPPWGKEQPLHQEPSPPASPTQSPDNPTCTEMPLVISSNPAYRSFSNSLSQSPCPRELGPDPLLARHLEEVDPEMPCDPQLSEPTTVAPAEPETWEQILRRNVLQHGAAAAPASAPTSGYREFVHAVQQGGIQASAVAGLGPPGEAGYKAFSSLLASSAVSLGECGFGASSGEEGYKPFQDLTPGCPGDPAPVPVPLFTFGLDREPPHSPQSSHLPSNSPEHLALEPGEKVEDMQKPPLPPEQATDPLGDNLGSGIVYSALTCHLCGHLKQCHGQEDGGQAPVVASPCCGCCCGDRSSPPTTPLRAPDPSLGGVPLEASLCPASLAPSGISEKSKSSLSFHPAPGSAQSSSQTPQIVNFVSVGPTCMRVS
From the text: as §2, §3

[11] = target: recombinant cynomolgus monkey IL-31 (ECD with His Tag, Sino Biological) (cynomolgus monkey); experiment: cell-based or functional assay
Human IL-4R-Fc [12] = target: T7, Human IL-4R-Fc (human, UniProt P24394 26-232); experiment: SPR, hIL-4R-Fc captured, scFv analyte
T7 construct: also called human IL-4R (scFv SPR, capture setup); not shown: Fc part

marmoset IL-4R ECD = target: T8, marmoset IL-4R ECD (marmoset (Callithrix jacchus), UniProt Q0PIT7 26-232); experiment: SPR, direct setup, marmoset IL-4R ECD immobilized
T8 construct: immobilized directly on the sensor chip; also called marmoset monkey IL-4R
T8 sequence (Q0PIT7 entry or part of it limits assumed): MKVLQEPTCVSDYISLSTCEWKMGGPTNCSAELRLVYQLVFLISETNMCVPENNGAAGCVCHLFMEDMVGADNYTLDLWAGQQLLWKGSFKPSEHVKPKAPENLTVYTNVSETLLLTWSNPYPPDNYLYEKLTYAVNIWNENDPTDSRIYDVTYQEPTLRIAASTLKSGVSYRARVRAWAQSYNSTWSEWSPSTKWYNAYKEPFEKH

[13] = target: T1, human IL-4R on cells (HEK-Blue …); experiment: cell-based or functional assay; remark: listed apart in the source
cynomolgus IL-4R-Fc = target: T9, cynomolgus IL-4R-Fc (cynomolgus monkey (Macaca fascicularis), UniProt A0A2K5V580 33-239); experiment: SPR, capture setup, cynomolgus IL-4R-Fc captured
T9 construct: also called cynomolgus IL-4R capture setup; not shown: Fc part
Description: (§4) Affinity of the optimized anti-IL-4R scFvs PRO1898 and PRO1899 to human IL-4R was determined by SPR analysis on a T200 device (Biacore, GE Healthcare), as described above in section 1.2.2. The scFvs were measured using a dose response multi-cycle kinetic assay with seven analyte concentrations ranging from 0.12 to 90 nM diluted in running buffer. Obtained sensorgrams were fitted using a 1:1 binding model.
Affinity of the optimized anti-IL-4R scFvs PRO1898 and PRO1899 to cynomolgus IL-4R was measured using the same setup as for the analysis of human IL-4R affinities, with the difference that cynomolgus IL-4R-Fc was captured instead of human IL-4R-Fc, as described above in section 1.2.2.

Human IL-4R-Fc [14] = target: T7, Human IL-4R-Fc; experiment: SPR, hIL-4R-Fc captured, scFv analyte; remark: listed apart in the source
Description: as §4

[15] = target: T10, human IL-4R (form not stated) (human, UniProt P24394 26-232, limits assumed); experiment: competition ELISA, hIL-4/IL-4R
T10 construct: whole entry named; also called hIL-4R
Description: Potency of the optimized anti-IL-4R scFvs PRO1898 and PRO1899 scFvs was determined using a competitive ELISA. The potency of each scFv to inhibit the interaction between human IL-4 and human IL-4R was assessed by ELISA as described in section 1.2.2. Similarly, to the stat-6 reporter gene assay, individual IC₅₀ values on each plate were calibrated against the IC₅₀ of the reference molecule dupilumab.

B1: PRO2199 (bispecific antibody, human IgG4 S228P, kappa)
light: DIQMTQSPSSLSASVGDRVTITCQASEDIESYLAWYQQKPGKAPKLLIYRASTLAYGVPSRFSGSGSGTDFTLTISSLQPEDFATYYCLGSSYSTGSNIFGQGTKVEIKRTVAAPSVFIFPPSDEQLKSGTASVVCLLNNFYPREAKVQWKVDNALQSGNSQESVTEQDSKDSTYSLSSTLTLSKADYEKHKVYACEVTHQGLSSPVTKSFNRGEC
heavy: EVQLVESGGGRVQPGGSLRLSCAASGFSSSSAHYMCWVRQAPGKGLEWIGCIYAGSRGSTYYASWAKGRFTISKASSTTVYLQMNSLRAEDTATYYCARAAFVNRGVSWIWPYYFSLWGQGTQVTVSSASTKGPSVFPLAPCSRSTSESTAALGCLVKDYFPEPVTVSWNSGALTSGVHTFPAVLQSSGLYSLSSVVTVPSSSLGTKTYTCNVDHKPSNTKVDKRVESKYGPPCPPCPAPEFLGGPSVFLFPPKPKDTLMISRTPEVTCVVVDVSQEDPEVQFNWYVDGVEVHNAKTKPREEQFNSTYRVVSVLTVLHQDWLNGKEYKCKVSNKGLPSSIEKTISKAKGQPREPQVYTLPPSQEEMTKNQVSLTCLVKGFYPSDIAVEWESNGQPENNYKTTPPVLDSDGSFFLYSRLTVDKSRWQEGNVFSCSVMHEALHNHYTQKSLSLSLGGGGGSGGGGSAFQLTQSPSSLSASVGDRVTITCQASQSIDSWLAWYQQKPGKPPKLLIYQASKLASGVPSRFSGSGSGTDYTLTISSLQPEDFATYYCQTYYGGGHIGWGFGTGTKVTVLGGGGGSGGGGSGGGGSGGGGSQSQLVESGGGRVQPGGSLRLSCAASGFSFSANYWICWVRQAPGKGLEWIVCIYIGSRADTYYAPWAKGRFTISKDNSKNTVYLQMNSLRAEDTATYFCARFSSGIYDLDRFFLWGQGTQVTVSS
notes: IgG4 (S228P) Morrison-H; also called Morrison-H; MorrH
- Mean IC50, human IL-4-induced signaling, stat-6 reporter gene assay [1]: 0.0115 nM
- IC50 (read off the curve), human IL-31-induced IL-31RA/OSMR dimerization, with an excess of IL-4R extracellular domain in the medium [2]: ~0.1 nM
- Kd [3]: 0.0351 nM
- koff [3]: 3.44e-05 s⁻¹
- kon [3]: 980000 M⁻¹ s⁻¹
- Kd [4]: 0.197 nM
- koff [4]: 5.76e-05 s⁻¹
- kon [4]: 293000 M⁻¹ s⁻¹
- IC50 (single analysis), human IL-13-induced signaling, stat-6 reporter gene assay [5]: 0.0113 nM
- IC50, IL-4-induced CD23 expression, memory B cells [6]: 2.53 nM
- IC50, IL-4-induced CD23 expression, monocytes (blood donor 1) [6]: 0.0697 nM
- IC50, IL-4-induced CD23 expression, naive B cells [6]: 1.1 nM
- Mean IC50, human IL-31-induced signaling, IL-31RA/OSMR dimerization assay [7]: 0.142 nM
- IC50, IL-4-induced TARC secretion in human whole blood [8]: < 0.5 nM
- EC50 [9]: 0.85 nM
- EC50 [10]: 1.78 nM
- IC50, cynomolgus IL-31-induced IL-31RA/OSMR dimerization (RLU) [table under the graph] [11]: 1.21 nM

B2: PRO1535 (scFv)
chain: DIQMTQSPSSLSASVGDRVTITCQASEDIESYLAWYQQKPGKPPKLLIYRASTLAYGVPSRFSGSGSGTDFTLTISSLQPEDFATYYCLGSSYSTGSNIFGTGTKVTVLGGGGGSGGGGSGGGGSGGGGSESQLVESGGGLVQPGGSLRLSCAASGFSSSSAHYMCWVRQAPGKGLEWIACIYAGSRGSTYYASWAKGRFTISKDNSKNTVYLQMNSLRAEDTAVYFCARAAFVNRGVSWIWPYYFSLWGQGTLVTVSS
- Kd (Human IL-4R-Fc [12]): 0.0199 nM
- koff (Human IL-4R-Fc [12]): 5.42e-05 s⁻¹
- kon (Human IL-4R-Fc [12]): 2.72e+06 M⁻¹ s⁻¹
- Kd (marmoset IL-4R ECD): 0.787 nM
- koff (marmoset IL-4R ECD): 0.00254 s⁻¹
- kon (marmoset IL-4R ECD): 3.23e+06 M⁻¹ s⁻¹
- IC50, neutralization of hIL-4-induced signaling, stat-6 reporter gene assay [13]: 1.15 ng/mL
- IC50, neutralization of hIL-13-induced signaling, stat-6 reporter gene assay [13]: 2.3 ng/mL

B3: PRO1898 (scFv, V domains shown)
VH: EVQLVESGGGLVQPGGSLRLSCAASGFSSSSAHYMCWVRQAPGKGLEWIGCIYAGSRGSTYYASWAKGRFTISRDNSKNTVYLQMNSLRAEDTAVYYCARAAFVNRGVSWIWPYYFSLWGQGTLVTVSS
VL: DIQMTQSPSSLSARVGDRVTITCQASEDIESYLAWYQQKPGKAPKLLIYRASTLAYGVPSRFSGSGSGRDFTLTISSLQPEDFATYYCLGSSYSTGSNIFGTGTKVTVLG
notes: scFv; VL entry ends with LCDR3 (no FR4); also called 44-34-C10-sc08
- Kd (cynomolgus IL-4R-Fc): 0.0908 nM
- koff (cynomolgus IL-4R-Fc): 0.000109 s⁻¹
- kon (cynomolgus IL-4R-Fc): 1.2e+06 M⁻¹ s⁻¹
- Kd (Human IL-4R-Fc [14]): 0.00791 nM
- koff (Human IL-4R-Fc [14]): 1.7e-05 s⁻¹
- kon (Human IL-4R-Fc [14]): 2.15e+06 M⁻¹ s⁻¹
- IC50 [15]: 3.41 ng/mL

B4: PRO1899 (scFv, V domains shown)
VH: EVQLVESGGGRVQPGGSLRLSCAASGFSSSSAHYMCWVRQAPGKGLEWIGCIYAGSRGSTYYASWAKGRFTISKASSTTVYLQMNSLRAEDTATYYCARAAFVNRGVSWIWPYYFSLWGQGTQVTVSS
VL: DIQMTQSPSSLSASVGDRVTITCQASEDIESYLAWYQQKPGKAPKLLIYRASTLAYGVPSRFSGSGSGTDFTLTISSLQPEDFATYYCLGSSYSTGSNIFGTGTKVTVLG
notes: scFv; VL entry ends with LCDR3 (no FR4); also called 44-34-C10-sc09
- Kd (cynomolgus IL-4R-Fc): 0.012 nM
- koff (cynomolgus IL-4R-Fc): 0.00014 s⁻¹
- kon (cynomolgus IL-4R-Fc): 1.1e+07 M⁻¹ s⁻¹
- Kd (Human IL-4R-Fc [14]): 0.00692 nM
- koff (Human IL-4R-Fc [14]): 2.04e-05 s⁻¹
- kon (Human IL-4R-Fc [14]): 2.95e+06 M⁻¹ s⁻¹
- IC50 [15]: 2.98 ng/mL
